Data: patent US10877024B2, “Methods of determining interferon having direct inhibitory effects on tumors and uses thereof” (SUPERLAB FAR EAST LIMITED, priority 2015, dated 2020)

Tests used:
Format in all cases: cell-based, human
lung cancer A549 cells = assay: Cell migration assay across microporous membranes; settings: 10 μg/ml, 24 hr, untreated Mock about 30
Description: (§1) The cell migration assay was performed using 8 μm cell culture inserts in 24-well plates (Becton-Dickinson Biosciences, NJ, USA). Warm (37° C.) bicarbonate based culture medium without FBS was added to the interior of the inserts and to the bottoms of the wells, and were allowed to rehydrate for 2 hr in humidified tissue culture incubator at 37° C. in 5% CO2. After rehydration, the culture medium was carefully removed. […] In the lower compartment of the 24-well plates were placed 500 μl of complete medium with 10% FBS. After 24 hr at 37° C. under the regular culture conditions, the non-migrated cells in the upper part of the chamber membranes were removed with a cotton swab. The lower part of the culture inserts were fixed with 4% paraformaldehyde and stained with 2% crystal violet. The number of migrated cells on the opposite side of the chamber membranes from where the cells were placed was counted in each of the triplicate wells. Each experiment was repeated at least two times, each time with triplicate wells.

colon cancer SW620 cells = assay: Cell migration assay across microporous membranes; settings: 10 μg/ml, 24 hr
Description: as §1

beta-catenin = assay: Beta-catenin protein level by Western Blot; settings: 10 mcg/ml, 24, 48, 72 hr
Description: Cancer cells, A549 and Sw480, were cultured to about 85% confluency and put into 6 well plates. […] After treatment, the cells were harvested for Western Blot to detect the beta-catenin protein level, using its specific antibody, with GAPDH as endogenous loading control. The experiment was conducted in triplicate.
To determine the expression of various proteins, cells were harvested from the plates and total cellular protein were extracted using extraction reagents (Cat #: P0013) according to the manufacturer's protocol (Beyotime, China). The total protein concentration was determined by the Lowry Protein Assay kit (Bio-Rad, USA). […] The membranes were blocked with 5% skimmed milk, bovine serum albumin, 10 mmol/L Tris-HCl at pH 8.0, 150 mmol/L NaCl, and 0.05% Tween 20 overnight at 4° C. The blocked membranes were then incubated with primary antibodies (1:1000 dilutions), followed by secondary HRP-conjugated antibodies. Blots were visualized using Luminescence/Fluorescence Imaging LAS4000 System (GE Healthcare Life Sciences, USA) with super signal west pico chemiluminescent substrate kit (Thermo scientific, USA).
For this determination, the primary antibodies used were mouse monoclonal anti-beta-catenin antibodies (1:1000; Santa Cruz Technology, Santa Cruz, Calif.) and mouse monoclonal anti-GAPDH antibodies (1:2000) (Kangwei Biotechnology, China). […]

BATF2 = assay: qPCR of tumor suppressor gene; settings: A549 cells, 10 mcg/ml, 24 hr
From the text: (§2) After 24 hr of treatment, total cellular mRNA was isolated using TRIZOL Reagent, and cDNA was synthesized, and further subjected to qPRC using specific primers for DKK3, KLF4 and BATF2. The following primers were used: for BATF2, sense primers: 5′-[…]-3′ (SEQ ID NO: 16) and antisense primers: 5′-[…]-3′ (SEQ ID NO: 17); for DKK3, sense primers: 5′-[…]-3′(SEQ ID NO: 18) and antisense primers: 5′-[…]-3′ (SEQ ID NO: 19); for KLF4, sense primers: 5′-[…]-3′ (SEQ ID NO: 20) and antisense primers: 5′-[…]-3′ (SEQ ID NO: 21).
(§3) The experiment was conducted in triplicate and normalized with the mock control group. Results, shown in FIG. 12, were expressed as relative mRNA expression level in relation to that of GAPDH.

KLF4 = assay: qPCR of tumor suppressor gene; settings: 10 mcg/ml, 24 hr
From the text: as §2, §3

different cancer cells = assay: Cell viability, Am-Blue assay, 48 hr, statements over all cell lines; settings: any of the cancer cell lines
Description: Cell culture and reagents. human lung cancer cell lines (A549, H1299, H460, Calu-1), human liver cancer cell lines (SMMC-7721, Huh-7, CL-1), human cervical carcinoma cell line (Hela), human breast cancer cell line (MDA-MB-231), human pancreatic cancer cell line (PANC-1) and human colon cancer cell lines (SW620, HT29, SW480) were purchased from the Shanghai Cell Collection (Shanghai, China). The above cell lines were cultured in 5% CO2 at 37° C. in corresponding complete growth medium formulated by the Shanghai Cell Collection, with 10% heat-inactivated fetal bovine serum (Biochrom, Germany), supplemented with 4 mM glutamine, 50 U/ml penicillin and […] streptomycin.
About 5×10^3 cells in 100 μl complete medium per well were plated in 96-well plates, incubated overnight, and then treated with IFN α-2b or rSIFN-co at concentrations of 100 μg/ml, 50 μg/ml, 25 μg/ml, 12.5 μg/ml, 6.25 μg/ml, 3.13 μg/ml, 1.56 μg/ml, 0.78 μg/ml, 0.39 μg/ml, and 0.20 μg/ml, respectively, for about 48 hr, at which time the cells were harvested for analysis. The cell viability rate was evaluated by SunBio Am-Blue assay kit (Cat #: SBAB8025, Shanghai SBO Medical Biotechnology Co., Ltd, Shanghai, China). […] After shaking the plates for 30 seconds, the absorbance for each well was read at both 570 nm and 595 nm by a Thermo Scientific Microplate Reader (Thermon Fisher Scientific, Inc., Lowell, Mass.). […]

B1: rSIFN-co: Recombinant super-compound interferon; amino acid sequence SEQ ID NO: 1 (same as INFERGEN), encoded by novel nucleotide sequence SEQ ID NO: 2 (protein)
chain: MCDLPQTHSLGNRRALILLAQMRRISPFSCLKDRHDFGFPQEEFDGNQFQKAQAISVLHEMIQQTFNLFSTKDSSAAWDESLLEKFYTELYQQLNDLEACVIQEVGVEETPLMNVDSILAVKKYFQRITLYLTEKKYSPCAWEVVRAEIMRSFSLSTNLQERLRRKE
modifications: Amino acid sequence of recombinant interferon
mean number of migrating cells per field (lung cancer A549 cells): about 10 cells per field | tumor cell migration (colon cancer SW620 cells): Significant inhibition | beta-catenin protein level (beta-catenin; A549 cells): dramatically decreased beta-catenin protein level after treatment for 2 days (48 hr) | beta-catenin protein level (beta-catenin; SW480 cells): obvious after 72 hours of treatment | relative mRNA expression level of BATF2 (BATF2): dramatically increased | relative mRNA expression level of KLF4 (KLF4; A549 cells): dramatically increased | relative mRNA expression level of KLF4 (KLF4; SW620 cells): dramatically increased as compared to control and IFN alpha-2b treatment | cell viability at 100 mcg/ml (different cancer cells): cell viability could not be detected
